Laboratory results reported in patent US7863432 (FORSCHUNGSVERBUND BERLIN E V, dated 2011).

Molecular target: T1, RIIα-YFP fusion protein (regulatory subunit RIIα of human protein kinase A fused to yellow-fluorescent … (human, UniProt P13861 2-404))
T1 construct: whole, on cells; Expressed inside transfected HEK293 or CD8 cells (diffuse, cytosolic); also called regulatory RIIα subunit of PKA; not shown: yellow-fluorescent protein (YFP) encoded by vector pEYFP (BD Biosciences Clontech)
Assay: FRET in two co-transfected HEK293 cells, time 0 min before peptide addition
Method: FRET measurements were performed 24-48 hours after transfection, using an epifluorescence microscope (Axiovert 200M, Carl Zeiss, Jena, Germany). The data were stored using the Openlab 2.25 software (Improvision, Coventry GB). Fluorescence was excited at a wavelength of 425 nm for CFP and 488 nm for YFP. […] Non-specific background fluorescence was determined in a region with no cells and subtracted.
This peptide inhibits the interaction between AKAP and regulatory PKA subunits in general (Klussmann et al., J. Biol. Chem. 274, 4934-4938, 1999; see schematic diagram in FIGS. 5A and B).

T1 sequence (P13861 2-404): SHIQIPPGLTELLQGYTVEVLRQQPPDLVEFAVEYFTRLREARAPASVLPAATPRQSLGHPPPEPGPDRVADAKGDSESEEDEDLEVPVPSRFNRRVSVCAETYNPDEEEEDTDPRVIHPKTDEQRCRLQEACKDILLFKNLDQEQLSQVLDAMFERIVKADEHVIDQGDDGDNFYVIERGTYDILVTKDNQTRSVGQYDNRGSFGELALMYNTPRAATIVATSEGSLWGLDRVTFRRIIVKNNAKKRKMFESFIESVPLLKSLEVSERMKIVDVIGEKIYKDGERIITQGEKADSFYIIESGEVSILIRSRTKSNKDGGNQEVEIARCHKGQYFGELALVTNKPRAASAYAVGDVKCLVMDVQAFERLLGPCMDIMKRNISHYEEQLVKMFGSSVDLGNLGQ

B1: AKAP18δ-CFP fusion protein (other)
chain: MERPAAGEIDANKCDHLSRGEEGTGDLETSPVGSLADLPFAAVDIQDDCGLPDVPQGNVPQGNPKRSKENRGDRNDHVKKRKKAKKDYQPNYFLSIPITNKKITAGIKVLQNSILRQDNRLTKAMVGDGSFHITLLVMQLLNEDEVNIGTDALLELKPFVEEILEGKHLTLPFHGIGTFQGQVGFVKLADGDHVSALLEIAETAKRTFQEKGILAGESRTFKPHLTFMKLSKAPMLWKKGVRKIEPGLYEQFIDHRFGEEILYQIDLCSMLKKKQSNGYYHCESSIVIGEKDRKEPEDAELVRLSKRLVENAVLKAVQQYLEETQNKKQPGEGNSVKAEEGDRNGDGSDNNRK
notes: Expressed inside transfected HEK293 or CD8 cells (diffuse, cytosolic); also called AKAP186; AKAP188; not shown: cyan-fluorescent protein (CFP) encoded by vector pECFP (BD Biosciences Clontech)
535/480 ratio (FRET signal) prior to addition of S-Ht31: ~1.3
